Data reported in paper PMC4797284.
Values belong to the substance of their own block, whether it stands above or below them.

Tests used:
[1] = biological target: RepDN, chimera of the 21 kDa fragment of RepD fused to the 14 kDa fragment of RepN (residues 35-314) (Staphylococcus aureus) (UniProt P03065); experiment: crystal structure
[2] = biological target: RepDE, chimera of the 21 kDa fragment of RepD fused to the 14 kDa fragment of RepE (residues 35-314) (Staphylococcus aureus) (UniProt P03065); experiment: crystal structure
[3] = biological target: RepSTK1, core domain of the replication initiator protein of cryptic plasmid pSTK1 from Geobacillus stearothermophilus (residues 1-269) (Geobacillus stearothermophilus); experiment: crystal structure; RepSTK1 crystals, space group P2(1)2(1)2(1), four molecules per asymmetric unit; protein dialysed against 50 mM Tris-HCl pH 7.5, 700 mM KCl; grown at 294 K as described in ref. 27; data at 100 K

Substance: RepDN, chimera of the 21 kDa fragment of RepD fused to the 14 kDa fragment of RepN (residues 35-314) (from UniProt P03065;P19529)
stoichiometry N [1]: 2

Substance: RepDE, chimera of the 21 kDa fragment of RepD fused to the 14 kDa fragment of RepE (residues 35-314) (from UniProt P03065;P12053)
stoichiometry N [2]: 2

stoichiometry N [3]: 2
Substance: RepSTK1, core domain of the replication initiator protein of cryptic plasmid pSTK1 from Geobacillus stearothermophilus (residues 1-269) (domain or fragment)
